# Data reported in publication PMC10023680 (2023).
# B1: GST-tagged ELMO1-RBD (residues 1-113), wild-type [human] / RhoG (residues 1-184) [human] (parent complex)
# chain 1: MPPPADIVKVAIEWPGAYPKLMEIDQKKPLSAIIKEVCDGWSLANHEYFALQHADSSNFYITEKNRNEIKNGTILRLTTSPAQNAQQLHERIQSSSMDAKLEALKDLASLSRD
# chain 2: not shown
# Variants of: B1
# Assay: SPR; RhoG in the active GTPγS-bound form; n = 3 independent experiments
row,Kd [µM],Variant
1,44.3,chain 1 E13A
2,10,chain 1 N58A
3,163,chain 1 L21A

# Variants of: B1
# Assay: SPR; read at the highest RhoG concentration, about 35 µM; RhoG in the active GTPγS-bound form; read off a plot
row,response [%],Variant
1,~46,chain 1 E13A
2,~0,chain 1 K9A
3,~59,chain 1 Y18A
4,~78,chain 1 N58A
5,~64,chain 1 K20E
6,~18,chain 1 L21A
